Data: the nanobody polyreactivity screen of Harvey et al. (2022)

Test: yeast display, Sf9 membrane polyspecificity reagent, FACS + sequencing; frameworks hold sequencing errors
Method in brief: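 A nanobody's polyreactivity label depends on the gate it was sorted from. Yeast display cells were stained with 10% biotinylated, detergent-solubilized Sf9 membrane reagent for 1 hour at 4 °C, enriched on streptavidin microbeads and sorted by FACS. The low and high (top ~1%) gates were set on anti-HA fluorescence for expression and streptavidin fluorescence for reagent binding.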

| Sequence | polyreactivity (PSR sort gate) |
| --- | --- |
| QVQLVESGGGLVQAGGSLRLSCAASGSTFYGYAMGWYRQAPGKERELVAAISSGASTYYADSVKGRFTISRDNAKNSVYLQMNSLKPEDTAVYYCAAYSYPKKYGYWGQGTQVTVSL | high polyreactivity |
| QVQLVESGGGLVQAGGSLRLSCAASGFIFLRYGMGWYRQAPGKERELVASIDSTGGSTYADSVKGRFTISRDNAKNTVYLQMNSLKPEDTAVYYCAAAYYIVSQRDYWGQGTQVTVSS | low polyreactivity |
| QVQLVESGGGLVQAGGSLRLSCAASGSIFPSYAMGWYRQAPGQERELVATIGRGGTTNYADSVKGRFTISRDNAKNTVYLQMNSLKPEDTAVYYCNAERIWRYKYGYDYWGQGTQVNVSS | high polyreactivity |
| QVQLVESGGGLVQAGGSLRLSCAASGRIFSGNAMGWYRQAPGKERELVAAITWSGSSTFYADSVKGRFTISRDNAKNTVYLQMNSLKPEDTAVYYCAVDSSSPVRPHTDEDYWGQGTQVTVSS | low polyreactivity |
| QVQLVESGGGLVQAGGSLRLSCAASGYIYDYNAMGWYRQAPGKERELVAAITFRDGSTYADSVKGRFTISRDNGKNTVYLQMNSLKPEDTAVYYCNRRSQVHSHSKHDDWGQGTQVTVSS | low polyreactivity |
| QVQLVESGGGLVQAGGSLRLSCAASGFTFYYYAMGWSRQAPGKERELVAAISQNGGRTYYADSVKGRFTISRDNAKNTVYLQMNSLKPEDTAVYYCAKASGYSSYGYWGQGTQVTVSS | high polyreactivity |
| QVQHVESRGGLVQAGGSLRLSCADSGSIFRAYAKGWYIQAPGKERELVADISRSGGSTYYADSVKGRFTISRDNANNTVYLQMNRLNPEDTAVYYCAAVFYLYSNLYGEYEYWGQGTQVTLSS | low polyreactivity |
| QVQLVESGVVLVQAGGSLRLSCAASGRIFRYYVMGWYRQAPGKERELVAAITNDGGNTNYADSVKGRFTISRDNEKNTVYLQMNSLKPEDTAVYYCNADRTHDRNPYTYATFDYWGQGTQVTVSS | low polyreactivity |
| QVQLVESGGGLVQAGGSLRLSCAASGRIFYRNAMGWYRQAPGKDRELVAGISKRGGSTYYADSVKGRFTISRDNAKNTVYLQMTSLKPEDTAVYYCNKVSFLNSHKSRGNRYYYWGQGTQVTVSS | high polyreactivity |
| QVQLVESGGGLVQAGGSLRLSCAASGSTFWFYAMGWYRQAPGKERELVAAITRGGSTYYADSVKGRFSISRDNAKNTVYLQMNSLKPEDTAVYYCAAEVGWSRYKWLEYWGQGTQVTVSS | low polyreactivity |
| QVQLVESGGGLVQAGGSLRLSGAASGSTFTEYAMGWYRQAPGKEREFVAAITESGASTYYADSVKGRFTISRDNAKNTVYLQRNSLKPEDTAVYYCNAGYWRFIDSYDYWGQGTQVTVSS | high polyreactivity |
| QVQLVESGGGLVQAGGSLRLSCAASGRTIRGNAMGWYRQAPGKERELVAAITRSGASTTYADSVKGRFTISRDNAKNTVYLQMNSLKPEDTAVYYCAARSGAVKYSSYYYWGQGTQVTVSS | high polyreactivity |
| QVQLVESGGGLVQAGGSLRLSCAASGSIFGPYAMGWYRQAPGKERELVAAISRGSRTNYADSVKGRFTISRDNAKNTVYLQMNSLKPEDTAVYYCAARYVWRSTHHRGSTYDYWGQGTQVTVSS | high polyreactivity |
| QVQLVESGGCLVQAGGSLRLSCAASGRTFYIYAMGWYRQAPGKERELVAAINFSDGSTSYADSVKGRFTISRDNAKHTVYLQMNSLKPEDTAVYYWGQGTKVTVSS | low polyreactivity |
| QVQLVESGGGLVQAGGSLRLSCAASGFTFYYYAMGWYRQAPGKERELVATISSSGGSTHYADSVKGRFTISRDNAKNTVYLQMNSLKPEDTAVYYCAADSYWDQSHIRDYWGQGTQVTVSS | low polyreactivity |
| QVQLVESGGGLVQAGGSLRLSCAASGSILCLNAMGWYRQAPGKERELVADITRGGSTYYADSVKGRFTISRDNAKNTVYLQMNSLKPEDTAVNYCAADAYTGQIPYYYFEHYYWGQGTQVTVSS | high polyreactivity |
| QVQLVESGGGLVQAGGSLRLICAASGSIFLHYGMGWYRQAPGKERELVAAISWRCRSTYYADSVKGRFTISRDNAKNTVYLQMNSLKPEDTAVYYCNAEYAFPLSGSGYWGQGTQVTVSS | low polyreactivity |
| QVQLVESGGGLVQAGGSLRLSCAASGGIFSSYAMGGYRQAPGKERELVASISRRGTSTYYADSVKGRFTISRDNAKNTVYLQMNSLKPEDTAVYYCAAGTKYTSAVHFYYWGQGTQVTVSS | high polyreactivity |
| QVQLVESGGGLVHAGGSLRLSCAASGSIFVGYAMGWYRQAPGKERELVARISRSGTSTYYADSVKGRFTISRDNAKNTVYLQMNSLKPEDTAVYYCNATVSRYSGYQRGHYWRYDYWGQGTQVTVSS | high polyreactivity |
| QVQLVESAGGLVQAGGSLRLTCDASGSTFGYYAMGLYRQAPGKEMELVAAITSNDGSTNYADSVKGRFTISRDNAKNTVYLQMNSLKPEDTAVYYCNARYFVAVISSFDYWGQGTQVTVSS | low polyreactivity |
| QVQLVESGGGLVQAGGSLRLSCAASGRIFRGYAMGWYRQAPGKERELVAAISGSGGSTYYADSVKGRFTISRDNAKNTVYLQMNSLKPEDTAVYYCAADQQSTGDWAGDYWGQGTQVTVSS | low polyreactivity |
| QVQLVESGGGLVQAGGSLRLSCAASGITFNVYAMAWYRQAPGKERELVATITGSGGSTYYADSVKGRFTISRDNAKNTVYLQMNSQKPEDTAVYYCNAYYYFWGQGSQVTVSS | low polyreactivity |

| Sequence | polyreactivity (PSR sort gate) |
| --- | --- |
| QVQLVESGGGLVQAGGSLLLSCAASGFTFRYYAMGWNRQAPGKERELVAAINSGGSTNYADSVKGLFTISRDNAKNTVYLQMNSLKPEDTAVYYCAKRGRRGIEYLGSAEMDYWGEGTQVTVSS | low polyreactivity |
| QVQLVESGGGLVQAGGSLSLSCAASGSIFPYYAMGWYRQAPGKESELVAAISRGGGTTYYADSVKGRFTISRDNAKNSVYLQMNSLKPEDTAVYSGAARRWGEYDYWGQGTQVTVSS | high polyreactivity |
| QVQLVESGGGLVQAGGSLRLTCAASGYTFVIYSMVWYRQAPGKVRELVAAITTIGGRTYYADSVKGRFTISRDNAKNTVYLQMNSLKPEDTAVYYCAADIRSNRLYDGGYWRQGTQVTVSS | low polyreactivity |
| QVQLVESGGGLVQAGGSLRLSCAASGFIFRRYAMGWYRQAPGKERELVAAISRGGGSTYYADSVKGRFTISRDNAKNTVYFQMNSLKPEDTAVYYCAARFVPYDAPLNERDYWGQGTQVTVSS | high polyreactivity |
| QVQLEESVGGLVQAGGSLRLSCAASGRIFTIYAMVSYRQAPGKERELVAAISDRGTRTYYADSVKGRFTISRDNAKNTVYLQMNSLKPDDTAVYYCATDALYTYGYDYWGQGTQVTVSS | low polyreactivity |
| QVQLVESGGGLVQAGGSLRLSCAASGSIFDYYAMGWYRQAPGKERELVAAIDSGDITYYADSVKGRFTISRDNAKNTFYLQMNRLKPEDTAVYYCAAEGTGYSVGWQYGYWGQGTQVSVSS | low polyreactivity |
| QVQLVESGGGLVQAGGSLRLSCAASGFIFYYYAMGWYRQAPGKEREMFAAITQGGGSTYYADSVKGRFTISRDNAKNTVYFQMNSLKPEDTAVYYCAAVKRVYAHCRAFSSDFYYWGQGTQVNVSS | high polyreactivity |
| QVQLVESGGGLVQAGGSLRLSCAASGSTFVVYAMGWYRQATGKERELVAAISANVGGTYYADSVKGRFTISRDNAKNTVYLQMNSLKPEVTAVYYCAADYAYNYFWRPGDYWGQGTQVTVSS | low polyreactivity |
| QVQLVESGGGLVQAGGSLRLSCAASGFIFHLYGMGWYRQATGKERELVAAISSGGRTYYADSVKGRFTISRDNAKNTVYLQMNSLKPEDTAVYYCAVYVAYLYSYYYWGQGTQVTVSS | low polyreactivity |
| QDQLVDSRGGLVQAGGSLRLSCAASGLIFRSYAMGWSRQAPGKERELVAAITDLFWSTYYADSVKGRFTISRDYAKNTVYLQMNSLKPEDNAVFYCARDDWVYTNVEMDYWGQGTQVTVSS | high polyreactivity |
| QVQLVESGGGLVQAGGSLRLSCAASGSIFTLNAMGWYRQAPGKERELVAAISRSGGSTYYADSVKGRFTISRDNAKNTVYLQMNSLKPEDTAVYYCAVYVTRDSGWWLYDYWGQGTQVTVSS | high polyreactivity |
| QVQLVESGGGLVQAGGSLRLSCAASGNTLVYYAMGWYRQAPGKERELVADISSSGGITYYADSVKGRFTISRDNAKNTVYLLMNSLKPVDTAVYYCAVDYPLYYWYLYNYWGQGTQVTVSS | low polyreactivity |
| QVQLVESGRGLVQAGGSLRLSCAASGIIFAQNAMGWYRQAPGKEMVLVAAISLDGGSTNYADSVKGRFTISRDNAKNTVYLQMNSLKPEDTAVYYCAADDGWIEPVYGYYEHEYWGQGTQVTVSS | low polyreactivity |
| QVQLVESGGGLVQAGGSLRLSCAASGSILYPNAMGWYRQAPGKERELVAAISTSGGSTYYADSVKGRFTLSRDNAKNTVYLQMNSLKPEDTAVYYCAKGWIYYSTWISEYWGQGTQVTVSS | low polyreactivity |
| QVQLEESGGGLVQAGGSLRLSCAASGLTLYKNGMGWYRQSPGKERELVAVISRSGGRTYYADSVKGRFTISRDNAKNTVYLQMNSLKPDDTAVYYCAARQYGPRYTYYYWGQGTQVTVSS | high polyreactivity |
| QVQLVESGGGLVQAGGSLRLSCAASGNIFPGYAMGWYRQAPGKERELVAGISGSGGRTYYADSVKGRFTISRDNAKNTVYLQMNSLKTEDTAVYYCAAAFKYYYRFEYDYWGQGTQVTVSS | low polyreactivity |
| QVQLVESGGGLFQAGGSLRLSCAASGSIFWGYDMGWYRQPPGKERELGARISYSGGSTSYADSVKGRFTISRDNAKNTVYLQMNSLKPEDTAVYYCAADEGGFWWTYPYDCWGQGTQVSVSS | low polyreactivity |
| QVQLVESGGGLVQAGCSLRLSCAASGSIFGFYAMGWYRQAPGKERELVATIRSSGGNTYYADSVKGRFTISRDNAKNTVYLEMNSLKPEDTGVFYCAASFLIRAYVDRNDYWGLGTQVTVSS | low polyreactivity |
| QVQLVESGGGLVQAGGSLRLSCAASGSIFFLYAMGWYRQAPGKERELVAAISLSTGNTYYADSVKGRFTISRDNAKNTVYLQMNSLKPEDSAVYYCAATYVSISYRYDYWGQGTQVTVSS | high polyreactivity |
| QVQLVETVGGLVQAGFSLRLSCAASGFTYGAYAMGLYRQPPGKERELVAAITLRTGGSTYYADSVKGRFTISRDNAKYTVYLQMNSLKPEDTAVYYCAARVGLSPGGYGYWGQGTQVTVSS | high polyreactivity |
| QVQLVESGGGLVQAGGSLRLSCAASGRTFYVYAMGWYRQAPGKERELVAAISWSGGSTYYADSVKGRFTISRDNAKNTVYLQMNSLKPEDTAVYYCAAQTYQRHVVAYDYWGQGTQVTVSS | low polyreactivity |
